The source of these data is article PMC8324772.

In assay [1] the target is Klebsiella quasipneumoniae Qmp M1-977 TolC (KqTolC), recombinant, C-terminal His6 (Klebsiella quasipneumoniae). Briefly: ITC; KlebC constructs in the syringe (76-89 µM), TolC trimer in the cell (5-7.6 µM); 25 mM Tris-HCl pH 7.5, 1% (w/v) β-OG; no feedback mode, 750 s between injections; single set of identical sites. For orientation: In ITC the heat of successive injections is recorded.

For assay [2], the target named is TolC of Klebsiella quasipneumoniae Qmp M1-977, endogenous (Klebsiella quasipneumoniae (endogenous in K. quasipneumoniae Qmp M1-977)).
In assay [3] the target is Klebsiella quasipneumoniae Qmp M1-977 TolC (KqTolC), recombinant, C-terminal His6 (Klebsiella quasipneumoniae). Briefly: stopped-flow fluorescence (pre-equilibrium, loss of Trp-to-AEDANS FRET); TolC in excess, pseudo-first-order, 25 °C; single exponential fits.
The target is the same in assay [4]. Briefly: equilibrium fluorescence (Trp-to-AEDANS FRET within KlebC); 1 µM Q204C^AEDANS KlebC_(1-254) without and with 1 µM KqTolC trimer; excitation 280 nm, FRET signal at 490 nm, 25 °C.
Assay [5] shares this target. Briefly: stopped-flow fluorescence (pre-equilibrium, loss of Trp-to-AEDANS FRET); Q204C^AEDANS KlebC_(1-254) in excess, pseudo-first-order, 25 °C; single exponential fits.
The target is the same in assay [6]. The experiment in a line: cryo-EM structure; KqTolC-KlebC_(1-254) mixed in β-OG and transferred into amphipol A8-35 without cross-linking; only KqTolC resolved; 3.4 Å.
Assay [7] shares this target. Briefly: ITC + other: stopped-flow fluorescence; koff not measured (too slow): estimated from the Kd by ITC and the kon by stopped-flow, assuming Kd = koff/kon.
For assay [8] the target is unchanged. The experiment in a line: stopped-flow fluorescence (pre-equilibrium, tryptophan emission); 0.5 µM KqTolC with excess KlebC_(1-254), pseudo-first-order, 25 °C; kapp from single exponential fits, kon from the gradient of kapp against concentration.

Consider KlebC_(51-254) (domain or fragment), for which, in assay [1], the Kd (usually a measure of binding affinity in units of concentration) was 368 nM, the dH is 20.8 kcal/mol and the stoichiometry N (binding sites per TolC trimer) amounted to 1.34. This substance also gave a growth of K. quasipneumoniae on LB-Agar with 1 mg ml^−1 Rhodamine 6G after serial dilution in 1 or 10 µM KlebC (51-254) in assay [2] of 4 log.

With “Q204C^AEDANS KlebC_(1-254) (domain or fragment)”, the kon (usually a measure of how fast the partners come together) came to 6700 M⁻¹ s⁻¹ in assay [3] and 2900 M⁻¹ s⁻¹ in assay [5]. For the same substance, in assay [4], the decrease of the Trp-to-AEDANS FRET signal at 490 nm upon addition of equimolar TolC trimer came to 77%.

With “Klebsiella quasipneumoniae Qmp M1-977 TolC (KqTolC), recombinant, C-terminal His6 (natural protein)”, in assay [6], the stoichiometry N (as a rule, a count of units in the complex or per binding partner) came to 3.

Take KlebC_(1-254) (domain or fragment): in assay [1], the Kd worked out at 35 nM, the dH was 30.6 kcal/mol and the stoichiometry N (binding sites per TolC trimer) amounted to 0.9. Also, in assay [7], the koff (commonly the rate constant with which the complex falls apart) was 5e-05 s⁻¹. In addition, the kon in assay [8] was found to be 1900 M⁻¹ s⁻¹.
